Reference: patent US20170298113A1 (TEL HASHOMER MEDICAL RESEARCH INFRASTRUCTURE AND SERVICES, published 2017)
*1 amine or outer side, *2 acyl side, *3 side chain or, on linkers, in order; H or OH if unused. Bridges are numbered along the chain shown (N, C = ends). Primed or numbered codes have the meaning given here. [ ]: non-standard residue; d: D form. N(2-mercaptoethyl)Gly = O=C(CN(CCS[*:3])[*:1])[*:2]; FITC′ = fluorescein isothiocyanate; GABA = NCCCC(=O)O

Columns and labels:
[1] = molecular target: T1, human somatostatin receptor subtype SSTR4 (human, UniProt P31391 1-388); test: FACS, transfected HEK-293 cells
T1 construct: whole, on cells
Procedure: (§1) Biological activity assessment of the compounds to define a specific affinity to each subtype was performed by FACS and fluorescence imaging methods.
(§2) The transfection process is illustrated in FIG. 1. The transient transfection process was carried out before each experiment. Briefly, HEK cells were cultured in standard cell growth conditions. For testing, the cells were transferred into 96-well plates. The tested compounds were dissolved in DMSO and then diluted in a buffer solution to a final DMSO concentration of 5% as a composition according to the teachings herein. Various amounts of the thus-prepared compositions were added to the cells in medium in the 96-well plates and allowed to incubate for between 1 and 24 hours. Binding was determined using fluorescent microscopy and FACS.
(§3) The cells were incubated for additional time intervals ranging from 0.5-24 hr. At the end of the incubation period, supernatant was discarded and the cells were washed twice with cold PBS. The plates were examined using IX81 inverted microscope (Olympus, Japan) equipped with PR71 digital camera. Additionally, a FACS assay was used for quantitative analysis.

[2] = molecular target: T2, human somatostatin receptor subtype SSTR3 (human, UniProt P32745 1-418); test: FACS, transfected HEK-293 cells
T2 construct: whole, on cells
Procedure: as §1, §2, §3

[3] = molecular target: T3, human somatostatin receptor subtype SSTR2 (human, UniProt P30874 1-369); test: FACS, transfected HEK-293 cells
T3 construct: whole, on cells
Procedure: as §1, §2, §3

[4] = molecular target: T4, human somatostatin receptor subtype SSTR5 (human, UniProt P35346 1-364); test: FACS, transfected HEK-293 cells
T4 construct: whole, on cells; also called SSTRS
Procedure: as §1, §2, §3

[5] = molecular target: T1, human somatostatin receptor subtype …; test: FACS, transfected HEK-293 cells; row normalised to highest
Procedure: as §1, §2, §3

[6] = molecular target: T2, human somatostatin receptor subtype …; test: as above
Procedure: as §1, §2, §3

[7] = molecular target: T3, human somatostatin receptor subtype …; test: as above
Procedure: as §1, §2, §3

[8] = molecular target: T4, human somatostatin receptor subtype …; test: as above
Procedure: as §1, §2, §3

[9] = molecular target: T5, human somatostatin receptor subtype SSTR1 (human, UniProt P30872 1-391); test: as above
T5 construct: whole, on cells
Procedure: as §1, §2, §3

[10] = molecular target: T1, human somatostatin receptor subtype …; test: FACS, transfected HEK-293 cells; normalised to Compound 1
Procedure: as §1, §2, §3

[11] = molecular target: T2, human somatostatin receptor subtype …; test: as above
Procedure: as §1, §2, §3

[12] = molecular target: T3, human somatostatin receptor subtype …; test: as above
Procedure: as §1, §2, §3

[13] = molecular target: T4, human somatostatin receptor subtype …; test: as above
Procedure: as §1, §2, §3

[14] = molecular target: T5, human somatostatin receptor subtype …; test: as above
Procedure: as §1, §2, §3

T4 sequence (P35346 whole entry): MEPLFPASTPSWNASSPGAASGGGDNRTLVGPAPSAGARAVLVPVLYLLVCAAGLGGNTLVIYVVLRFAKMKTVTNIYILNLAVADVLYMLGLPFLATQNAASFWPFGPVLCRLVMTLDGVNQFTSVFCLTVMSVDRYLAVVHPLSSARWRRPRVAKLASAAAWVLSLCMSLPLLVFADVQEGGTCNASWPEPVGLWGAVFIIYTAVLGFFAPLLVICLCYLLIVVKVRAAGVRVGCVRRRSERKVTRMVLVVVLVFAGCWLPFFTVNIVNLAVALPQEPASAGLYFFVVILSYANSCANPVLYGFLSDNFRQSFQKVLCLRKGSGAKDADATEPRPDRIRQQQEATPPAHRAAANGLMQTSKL
T1 sequence (P31391 whole entry): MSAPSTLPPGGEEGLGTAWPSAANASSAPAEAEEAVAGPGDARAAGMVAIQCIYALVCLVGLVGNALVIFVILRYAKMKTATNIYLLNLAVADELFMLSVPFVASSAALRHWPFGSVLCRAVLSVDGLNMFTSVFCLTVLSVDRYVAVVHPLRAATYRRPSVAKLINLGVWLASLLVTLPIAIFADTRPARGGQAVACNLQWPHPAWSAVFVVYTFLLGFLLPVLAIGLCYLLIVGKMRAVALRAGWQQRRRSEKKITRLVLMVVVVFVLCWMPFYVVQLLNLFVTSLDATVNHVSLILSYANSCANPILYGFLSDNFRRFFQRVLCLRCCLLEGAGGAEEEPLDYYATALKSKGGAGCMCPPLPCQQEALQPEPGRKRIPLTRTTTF
T3 sequence (P30874 whole entry): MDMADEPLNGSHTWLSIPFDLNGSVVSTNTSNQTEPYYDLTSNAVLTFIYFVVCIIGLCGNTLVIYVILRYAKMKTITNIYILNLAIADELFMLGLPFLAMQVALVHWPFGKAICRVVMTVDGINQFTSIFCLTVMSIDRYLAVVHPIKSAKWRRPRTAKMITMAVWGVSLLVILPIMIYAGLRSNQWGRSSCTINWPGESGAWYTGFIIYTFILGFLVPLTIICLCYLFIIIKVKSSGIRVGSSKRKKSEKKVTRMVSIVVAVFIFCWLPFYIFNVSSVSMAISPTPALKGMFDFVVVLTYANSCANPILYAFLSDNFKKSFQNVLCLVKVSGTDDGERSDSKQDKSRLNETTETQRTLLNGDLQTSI
T2 sequence (P32745 whole entry): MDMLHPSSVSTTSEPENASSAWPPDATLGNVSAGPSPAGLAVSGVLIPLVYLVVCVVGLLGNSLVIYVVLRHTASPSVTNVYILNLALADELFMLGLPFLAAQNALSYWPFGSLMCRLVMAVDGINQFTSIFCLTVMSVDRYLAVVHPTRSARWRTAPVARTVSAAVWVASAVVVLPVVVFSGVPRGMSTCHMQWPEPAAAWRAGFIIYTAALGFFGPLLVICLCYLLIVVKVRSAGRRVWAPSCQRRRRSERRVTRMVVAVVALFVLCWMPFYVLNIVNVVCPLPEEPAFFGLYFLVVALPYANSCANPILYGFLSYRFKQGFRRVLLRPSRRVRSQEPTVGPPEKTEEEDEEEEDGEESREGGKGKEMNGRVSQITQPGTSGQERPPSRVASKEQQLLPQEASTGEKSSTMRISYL
T5 sequence (P30872 whole entry): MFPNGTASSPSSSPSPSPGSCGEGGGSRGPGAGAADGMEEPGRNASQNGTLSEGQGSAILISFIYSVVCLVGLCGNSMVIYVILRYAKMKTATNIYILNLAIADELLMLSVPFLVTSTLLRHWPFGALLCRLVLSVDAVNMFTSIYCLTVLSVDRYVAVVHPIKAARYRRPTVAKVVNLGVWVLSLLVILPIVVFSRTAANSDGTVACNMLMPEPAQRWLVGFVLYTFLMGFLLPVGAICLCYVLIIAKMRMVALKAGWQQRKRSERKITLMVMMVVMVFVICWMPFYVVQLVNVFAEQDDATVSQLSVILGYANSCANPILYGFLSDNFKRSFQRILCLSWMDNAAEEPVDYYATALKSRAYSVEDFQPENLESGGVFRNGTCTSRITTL

B1: Compound 9 (peptide)
peptide: {FITC′-GABA}-CRF[dW]KTF[N(2-mercaptoethyl)Gly]-NH2
modifications: disulfide 1-8
notes: Synthetic cyclic peptide-fluorescent agent conjugate; also called 21
Relative binding affinity [1]: 15% | Relative binding affinity [2]: 14% | Relative binding affinity [3]: 10% | Relative binding affinity [4]: 20% | Adjusted binding affinity [5]: 0.75 | Adjusted binding affinity [6]: 0.7 | Adjusted binding affinity [7]: 0.5 | Adjusted binding affinity [8]: 1 | Adjusted binding affinity [9]: 0 | Binding affinity relative to Compound 1 [10]: 67 % of Compound 1 | Binding affinity relative to Compound 1 [11]: 82 % of Compound 1 | Binding affinity relative to Compound 1 [12]: 154 % of Compound 1 | Binding affinity relative to Compound 1 [13]: 70 % of Compound 1 | Binding affinity relative to Compound 1 [14]: 0 % of Compound 1
